Measured values as given in the supplement of paper PMC10567573.
± gives the standard deviation.

Assay: protein stability index of a GFP-peptide fusion (GPS, HEK-293T) (PSI 1-6); higher = more stable
Details: c terminus: a fixed tail appended
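Further: 24-mer peptide tiles fused after GFP, lentivirally expressed, FACS-sorted into six equal bins by GFP/DsRed ratio, decoded by Illumina sequencing, PSI is the read-weighted mean bin number.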

| Sequence | protein stability index (treatment: DMSO) | protein stability index (treatment: MLN4924 1 uM, 8 h) |
| --- | --- | --- |
| HAGKKGKLSEHLRYCDSILREMLS [BRD3] | 2.16 ± 0.41 | 2.21 ± 0.3 |
| HAYFRGHSPSCLARVTGELTMTFP [FCHO1] | 2.21 ± 0.52 | 2.23 ± 0.13 |
| HCGVLEFVADEGICYLPHWMMQNL [UFD1] | 2.57 ± 0.59 | 2.13 ± 0.39 |
| HCLDQVGLFRKSGVKSRIQALRQM [DLC1] | 2.48 ± 0.36 | 2.4 ± 0.25 |
| HCPESGEEAVILLEDLERELDEPQ [ZSCAN9] | 5.55 ± 0.24 | 5.46 ± 0.44 |
| HCTTVDGQRQLMVPARDGTSCKLT [ADAMTSL2] | 4.41 ± 0.2 | 4.44 ± 0.11 |
| HDELLAEHIKSLLIKNNSLPRKRQ [INTS3] | 5 ± 0.17 | 4.98 ± 0.2 |
| HFERRDNMNDNFLEGEEENELTLN [CHGB] | 5.53 ± 0.06 | 5.61 ± 0.21 |
| HGHNIGKKMSCQQFIANLDQLNDG [PSD2] | 3.26 ± 0.24 | 3.29 ± 0.16 |
| HGLPFLPGTSFKDSTKTAFHRSQT [EFHC1] | 3.53 ± 0.15 | 3.63 ± 0.087 |
| HHAALNGHVEMVNLLLAKGANINA [ANKRD44] | 2.51 ± 0.4 | 2.89 ± 0.2 |
| HHAQTSKTERINALELLGATFVDK [FEM1C] | 3.83 ± 0.12 | 3.86 ± 0.31 |
| HKTAGKRYVYRFVCDLQSLLGYTP [ETS1] | 3.08 ± 1 | 2.66 ± 0.57 |
| HLARHAVACFLTRGDLWISWEEGM [CRY1] | 3.01 ± 0.72 | 2.98 ± 0.47 |
| HLRIHTGEKPYKCTHCSKSFRQRA [ZNF449] | 2.83 ± 0.43 | 3.11 ± 0.38 |
| HMIQGAGSLEKALPIIQSNQVSSN [DLC1] | 4.22 ± 0.23 | 4.27 ± 0.24 |
| HPFLYLSLEISPQNVDVNVHPTKH [MLH1] |  | 2.37 ± 0.34 |
| HQTLKCSALATQYMHCVNHAKQSM [CHCHD3] | 2.1 ± 0.22 | 2.29 ± 0.17 |
| HRILLLAISLTKCLESTKLLADLK [MIA2] | 2.73 ± 0.35 | 3.339 ± 0.011 |
| HSTSLKVPLARSLQISEELLSRNQ [LCOR] | 4 ± 0.24 | 3.97 ± 0.099 |
| HTFAGDDCQAGLNFADEDEAQAFR [WAS] | 5.26 ± 0.18 | 4.92 ± 0.38 |
| HVDPEEPWSPCSARFITDFLDNGY [ADAMTS4] | 2.57 ± 0.39 | 2.88 ± 0.71 |

| Sequence | protein stability index (treatment: DMSO) | protein stability index (treatment: MLN4924 1 uM, 8 h) |
| --- | --- | --- |
| HVGDFARDLAARWKKLVLVDRNTR [ELOA2] | 2.39 ± 0.29 | 2.86 ± 0.34 |
| HVTHWMGQPFNSDDRNTACHHGLV [DLC1] | 2.51 ± 0.28 | 2.92 ± 0.31 |
| HYICPRLGGIGFSSCIVCLFVGLY [SLC6A17] | 2.39 ± 0.54 | 2.3 ± 0.21 |
| IAKYSDGASKAAGVFGFFATIVFA [CMTM3] | 2.86 ± 0.57 | 2.74 ± 0.41 |
| IALYFVSKKFKNCFQSCLCCCCYQ [EDNRA] | 3.19 ± 1.1 | 2.13 ± 1.4 |
| IDIVAIIPYFITLGTELAERQGNG [KCNA3] | 2.97 ± 0.38 | 3.29 ± 0.59 |
| IEKWVILEKDFSIYGGELGPMMKL [ACSBG2] | 2.56 ± 0.71 | 2.38 ± 0.44 |
| IEMFKSITHSTVGSKGEKDLGASS [EHMT1] | 4.23 ± 0.15 | 3.85 ± 0.36 |
| IGWFPSNYVLEEVDEAAAESPSFL [NCK2] | 3.93 ± 0.24 | 4.13 ± 0.23 |
| IGWKTVRMYPFQIHSIALSTFASL [CDS2] | 2.69 ± 0.65 | 2.65 ± 0.45 |
| IIALIALSVGQYNCPGQYTFSMPS [CD69] | 3.51 ± 0.45 | 3.3 ± 0.48 |
| IIESFTELARIVLLRHRMNWLGRP [RAB40A] | 3.18 ± 0.72 | 2.79 ± 0.47 |
| IIKICDFGFAQILIPGDAYTDYVA [CDKL4] | 2.6 ± 0.59 | 2.81 ± 0.95 |
| IIKKVAEVALDKGCSQFRLAVLDW [SAT2] | 2.77 ± 0.4 | 2.82 ± 0.6 |
| IKNLYAFNLFCQKRFDESMQVFAK [VPS39] | 2.19 ± 0.29 | 1.96 ± 0.21 |
| ILAETGIRKTVKRLRKHQHVGDFA [ELOA2] | 2.78 ± 0.23 | 3.16 ± 0.49 |
| ILELYNIDSHLLLSVLPQLEFKLK [PDS5B] | 2.64 ± 0.53 | 2.45 ± 0.78 |
| ILGGSGPVRKLYDDCSSTIVEDPQ [ESRRG] | 4.37 ± 0.3 | 4.41 ± 0.3 |
| ILLQEIPIRSISLRSCYFSDPDCS [FBXO39] | 2.55 ± 0.54 | 2.91 ± 0.72 |
| ILTIMATLKIRNSNFYTVAVTSLS [TMEM106C] | 3.3 ± 0.36 | 3.16 ± 0.38 |
| ILVNLQGTVVFLLSLFIPESPRWL [SLC22A15] | 3.12 ± 0.14 | 3.23 ± 0.48 |
| IMELTGGGQESSGLNLGKKISVPR [MYOZ1] | 3.58 ± 0.19 | 3.83 ± 0.33 |

| Sequence | protein stability index (treatment: DMSO) | protein stability index (treatment: MLN4924 1 uM, 8 h) |
| --- | --- | --- |
| IMLKNISQDERLDVLLTLKHTVKE [IQUB] | 2.45 ± 0.56 | 2.09 ± 0.34 |
| IPAEENASTSTPSSTLVRPIRSRR [FAM189A2] | 5.29 ± 0.16 | 5.33 ± 0.19 |
| IRALLNLHTDVGSVRMRRAEKSVA [NEK8] | 2.42 ± 0.21 | 2.53 ± 0.19 |
| IREKSRLFDTKHDVYSFAIVIWGV [RIPK4] | 3.27 ± 0.68 | 2.9 ± 0.83 |
| IRGRYLVALGHAYHPEEFVCSQCG [PDLIM7] | 2.51 ± 0.18 | 2.77 ± 0.3 |
| IRSSFISSLSFFLKKMGKRLDYLN [FBXO39] | 2.71 ± 0.61 | 2.81 ± 0.56 |
| ISSTTCGRQLEKVPEKRDSGMTEV [SPATS1] | 4.27 ± 0.24 | 4.38 ± 0.35 |
| ITKQGDGVDFLSWFLNALHSALGG [USP39] | 2.22 ± 0.47 | 2.11 ± 0.21 |
| ITMMALKVLGELNILPNTQKVTCF [TENT5D] | 2.86 ± 0.59 | 2.31 ± 0.75 |
| ITNQVVAQVDGAAMFAADPKKPIG [RAD51] | 4.58 ± 0.11 | 4.51 ± 0.2 |
| IYSTKLYRFFKYIENRDVAKSVLK [BTBD10] | 3.1 ± 0.97 | 2.37 ± 0.61 |
| KALSRKSTSFRVYIMAFDIKSEDM [FBXO33] | 2.74 ± 0.54 | 2.6 ± 0.55 |
| KASSRKPFGILSPNVLCSMSGKSP [FBXO34] | 2.83 ± 0.095 | 3 ± 0.27 |
| KCMRNGPNALIASLALGDLIYVVI [EDNRA] | 3.49 ± 0.4 | 2.79 ± 0.79 |
| KEAKEFLVQLRNMVQQIQENSVEF [TRIM9] | 2.29 ± 0.31 | 2.41 ± 0.23 |
| KECPFRVNKVCGAACSSKRSPIID [SERPINB5] | 3.02 ± 0.2 | 3.12 ± 0.38 |
| KEEDHYQRARKEREKEDYLHLKRQ [RHOBTB2] | 4.85 ± 0.15 | 5.01 ± 0.19 |
| KEKLQKCLEPLEQKLQEITRCKSS [TRIM39] | 4.38 ± 0.22 | 4.44 ± 0.4 |
| KEKSSTVPIPTVNQYLYFLFAPTL [SOAT1] | 2.57 ± 1 | 2.17 ± 0.51 |
| KGDVEEVQGPGVVGEFPIISPGRV [FBXO3] | 4.81 ± 0.27 | 4.8 ± 0.2 |
| KGLEDTKSPQFNRYFYLLENIAWV [PDS5B] | 2.44 ± 0.89 | 2.31 ± 0.37 |
